Data: US20050084449A1

Experiments:
[1] = target: TIM-1 antigen, cell membrane-bound (on ACHN, CAKI-2, CAKI-1 renal cancer cells and polarized/activated human CD4+ T cells) (human) (UniProt Q96D42); experiment: FACS on activated T cells, Day 1, -MMPI
[2] = target: TIM-1 antigen, cell membrane-bound (on ACHN, CAKI-2, CAKI-1 renal cancer cells and polarized/activated human CD4+ T cells) (human) (UniProt Q96D42); experiment: FACS on activated T cells, Day 5, +MMPI
[3] = target: TIM-1 antigen, cell membrane-bound (on ACHN, CAKI-2, CAKI-1 renal cancer cells and polarized/activated human CD4+ T cells) (human) (UniProt Q96D42); experiment: FACS on activated T cells, Day 0, -MMPI
[4] = target: TIM-1 antigen, cell membrane-bound (on ACHN, CAKI-2, CAKI-1 renal cancer cells and polarized/activated human CD4+ T cells) (human) (UniProt Q96D42); experiment: FACS on activated T cells, Day 4, +MMPI
[5] = target: TIM-1 antigen, cell membrane-bound (on ACHN, CAKI-2, CAKI-1 renal cancer cells and polarized/activated human CD4+ T cells) (human) (UniProt Q96D42); experiment: FACS on activated T cells, Day 2, +MMPI
[6] = target: TIM-1 antigen, cell membrane-bound (on ACHN, CAKI-2, CAKI-1 renal cancer cells and polarized/activated human CD4+ T cells) (human) (UniProt Q96D42); experiment: FACS on activated T cells, Day 0, +MMPI
[7] = target: TIM-1 antigen, cell membrane-bound (on ACHN, CAKI-2, CAKI-1 renal cancer cells and polarized/activated human CD4+ T cells) (human) (UniProt Q96D42); experiment: FACS on activated T cells, Day 1, +MMPI
[8] = target: TIM-1 antigen, cell membrane-bound (on ACHN, CAKI-2, CAKI-1 renal cancer cells and polarized/activated human CD4+ T cells) (human) (UniProt Q96D42); experiment: FACS on activated T cells, Day 4, -MMPI
[9] = target: TIM-1 antigen, cell membrane-bound (on ACHN, CAKI-2, CAKI-1 renal cancer cells and polarized/activated human CD4+ T cells) (human) (UniProt Q96D42); experiment: FACS on activated T cells, Day 2, -MMPI
[10] = target: TIM-1 antigen, cell membrane-bound (on ACHN, CAKI-2, CAKI-1 renal cancer cells and polarized/activated human CD4+ T cells) (human) (UniProt Q96D42); experiment: FACS on activated T cells, Day 5, -MMPI

Sequence of TIM-1 antigen, cell membrane-bound (on ACHN, CAKI-2, CAKI-1 renal cancer cells and polarized/activated human CD4+ T cells) (human) (Q96D42 21-364): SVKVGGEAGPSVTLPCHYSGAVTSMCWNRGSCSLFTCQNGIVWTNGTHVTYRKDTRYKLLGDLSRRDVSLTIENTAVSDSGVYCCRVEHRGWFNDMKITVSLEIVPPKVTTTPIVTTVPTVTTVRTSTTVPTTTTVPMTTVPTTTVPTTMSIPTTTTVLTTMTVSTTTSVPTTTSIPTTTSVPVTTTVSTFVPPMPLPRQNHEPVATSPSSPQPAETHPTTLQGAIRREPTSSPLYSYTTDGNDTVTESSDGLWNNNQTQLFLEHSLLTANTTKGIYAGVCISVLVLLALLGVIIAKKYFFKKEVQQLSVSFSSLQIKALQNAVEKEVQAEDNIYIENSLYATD

Percent of activated T cells that express TIM-1 (percent stained) [1]: 3% | Percent of activated T cells that express TIM-1 (percent stained) [2]: 2% | Percent of activated T cells that express TIM-1 (percent stained) [3]: 1% | Percent of activated T cells that express TIM-1 (percent stained) [4]: 2% | Percent of activated T cells that express TIM-1 (percent stained) [5]: 6% | Percent of activated T cells that express TIM-1 (percent stained) [6]: 1% | Percent of activated T cells that express TIM-1 (percent stained) [7]: 2% | Percent of activated T cells that express TIM-1 (percent stained) [8]: 1% | Percent of activated T cells that express TIM-1 (percent stained) [9]: 3% | Percent of activated T cells that express TIM-1 (percent stained) [10]: 1%
Substance: isotype matched control mAb PK16.3 (antibody)
